The Human Domainome abundance scans (Beltran et al. 2025)
± gives the uncertainty stated by the source.

B1: Proto-oncogene vav, residues 782 to 842; numbered along this chain, P15498 (parent)
chain: KYFGTAKARYDFCARDRSELSLKEGDIIKILNKKGQQGWWRGEIYGRVGWFPANYVEEDYS

Variants of: B1
Assay: abundance fitness (aPCA) (normalised: wild type 0, dead -1); higher = more abundant; growth selection in yeast, the domain comes from the species named
Conditions: Homo sapiens
KYFGTAKARYDFCARDRSELSLKEGYIIKILNKKGQQGWWRGEIYGRVGWFPANYVEEDYS [D26Y] gave an abundance fitness of -0.472 ± 0.18. Variant KYFGTAKARYDFCARDRSELSLKEGCIIKILNKKGQQGWWRGEIYGRVGWFPANYVEEDYS [D26C] has an abundance fitness of -0.737 ± 0.26. Work on KYFGTAKARYDFCARDRSELSLKEGGIIKILNKKGQQGWWRGEIYGRVGWFPANYVEEDYS [D26G] yielded an abundance fitness of -0.948 ± 0.17. In the case of KYFGTAKARYDFCARDRSELSLKEGWIIKILNKKGQQGWWRGEIYGRVGWFPANYVEEDYS [D26W], the abundance fitness is reported as -0.8 ± 0.21. In the case of KYFGTAKARYDFCARDRSELSLKEGAIIKILNKKGQQGWWRGEIYGRVGWFPANYVEEDYS [D26A], the abundance fitness is reported as -0.493 ± 0.1. Work on KYFGTAKARYDFCARDRSELSLKELDIIKILNKKGQQGWWRGEIYGRVGWFPANYVEEDYS [G25L] yielded an abundance fitness of -0.904 ± 0.12. In the case of KYFGTAKARYDFCARDRSELSLKEMDIIKILNKKGQQGWWRGEIYGRVGWFPANYVEEDYS [G25M], the abundance fitness is reported as -0.742 ± 0.12. KYFGTAKARYDFCARDRSELSLKEYDIIKILNKKGQQGWWRGEIYGRVGWFPANYVEEDYS [G25Y] showed an abundance fitness of -1.02 ± 0.41. Variant KYFGTAKARYDFCARDRSELSLKEHDIIKILNKKGQQGWWRGEIYGRVGWFPANYVEEDYS [G25H] has an abundance fitness of -0.975 ± 0.34. Variant KYFGTAKARYDFCARDRSELSLKEQDIIKILNKKGQQGWWRGEIYGRVGWFPANYVEEDYS [G25Q] has an abundance fitness of -0.957 ± 0.41. KYFGTAKARYDFCARDRSELSLKENDIIKILNKKGQQGWWRGEIYGRVGWFPANYVEEDYS [G25N] showed an abundance fitness of -0.675 ± 0.27. For KYFGTAKARYDFCARDRSELSLKEVDIIKILNKKGQQGWWRGEIYGRVGWFPANYVEEDYS [G25V], the abundance fitness was -1.21 ± 0.32. Variant KYFGTAKARYDFCARDRSELSLKESDIIKILNKKGQQGWWRGEIYGRVGWFPANYVEEDYS [G25S] has an abundance fitness of -0.818 ± 0.12. KYFGTAKARYDFCARDRSELSLKEWDIIKILNKKGQQGWWRGEIYGRVGWFPANYVEEDYS [G25W] gave an abundance fitness of -0.498 ± 0.1. In the case of KYFGTAKARYDFCARDRSELSLKERDIIKILNKKGQQGWWRGEIYGRVGWFPANYVEEDYS [G25R], the abundance fitness is reported as -0.667 ± 0.091. In the case of KYFGTAKARYDFCARDRSELSLKECDIIKILNKKGQQGWWRGEIYGRVGWFPANYVEEDYS [G25C], the abundance fitness is reported as -0.895 ± 0.28. KYFGTAKARYDFCARDRSELSLKEPDIIKILNKKGQQGWWRGEIYGRVGWFPANYVEEDYS [G25P] gave an abundance fitness of -0.615 ± 0.14. KYFGTAKARYDFCARDRSELSLKEFDIIKILNKKGQQGWWRGEIYGRVGWFPANYVEEDYS [G25F] gave an abundance fitness of -0.786 ± 0.28. In the case of KYFGTAKARYDFCARDRSELSLKEADIIKILNKKGQQGWWRGEIYGRVGWFPANYVEEDYS [G25A], the abundance fitness is reported as -0.721 ± 0.18. KYFGTAKARYDFCARDRSELSLKEDDIIKILNKKGQQGWWRGEIYGRVGWFPANYVEEDYS [G25D] showed an abundance fitness of -0.518 ± 0.17. Work on KYFGTAKARYDFCARDRSELSLKETDIIKILNKKGQQGWWRGEIYGRVGWFPANYVEEDYS [G25T] yielded an abundance fitness of -0.97 ± 0.23. KYFGTAKARYDFCARDRSELSLKMGDIIKILNKKGQQGWWRGEIYGRVGWFPANYVEEDYS [E24M] gave an abundance fitness of -0.009 ± 0.094. KYFGTAKARYDFCARDRSELSLKHGDIIKILNKKGQQGWWRGEIYGRVGWFPANYVEEDYS [E24H] gave an abundance fitness of -0.13 ± 0.098. KYFGTAKARYDFCARDRSELSLKKGDIIKILNKKGQQGWWRGEIYGRVGWFPANYVEEDYS [E24K] showed an abundance fitness of -0.01 ± 0.11. For KYFGTAKARYDFCARDRSELSLKNGDIIKILNKKGQQGWWRGEIYGRVGWFPANYVEEDYS [E24N], the abundance fitness was -0.118 ± 0.082. In the case of KYFGTAKARYDFCARDRSELSLKDGDIIKILNKKGQQGWWRGEIYGRVGWFPANYVEEDYS [E24D], the abundance fitness is reported as -0.361 ± 0.076. Work on KYFGTAKARYDFCARDRSELSLKCGDIIKILNKKGQQGWWRGEIYGRVGWFPANYVEEDYS [E24C] yielded an abundance fitness of -0.091 ± 0.051. For KYFGTAKARYDFCARDRSELSLKFGDIIKILNKKGQQGWWRGEIYGRVGWFPANYVEEDYS [E24F], the abundance fitness was -0.575 ± 0.077. In the case of KYFGTAKARYDFCARDRSELSLKSGDIIKILNKKGQQGWWRGEIYGRVGWFPANYVEEDYS [E24S], the abundance fitness is reported as -0.056 ± 0.046. With KYFGTAKARYDFCARDRSELSLKRGDIIKILNKKGQQGWWRGEIYGRVGWFPANYVEEDYS [E24R] the abundance fitness was 0.068 ± 0.051. For KYFGTAKARYDFCARDRSELSLKGGDIIKILNKKGQQGWWRGEIYGRVGWFPANYVEEDYS [E24G], the abundance fitness was -0.262 ± 0.053. KYFGTAKARYDFCARDRSELSLKWGDIIKILNKKGQQGWWRGEIYGRVGWFPANYVEEDYS [E24W] showed an abundance fitness of -0.92 ± 0.25. In the case of KYFGTAKARYDFCARDRSELSLKPGDIIKILNKKGQQGWWRGEIYGRVGWFPANYVEEDYS [E24P], the abundance fitness is reported as -0.111 ± 0.096. Variant KYFGTAKARYDFCARDRSELSLKYGDIIKILNKKGQQGWWRGEIYGRVGWFPANYVEEDYS [E24Y] has an abundance fitness of -0.231 ± 0.062. In the case of KYFGTAKARYDFCARDRSELSLKLGDIIKILNKKGQQGWWRGEIYGRVGWFPANYVEEDYS [E24L], the abundance fitness is reported as -0.809 ± 0.13. KYFGTAKARYDFCARDRSELSLKVGDIIKILNKKGQQGWWRGEIYGRVGWFPANYVEEDYS [E24V] gave an abundance fitness of 0.045 ± 0.049. Work on KYFGTAKARYDFCARDRSELSLKQGDIIKILNKKGQQGWWRGEIYGRVGWFPANYVEEDYS [E24Q] yielded an abundance fitness of -0.072 ± 0.13. Work on KYFGTAKARYDFCARDRSELSLKIGDIIKILNKKGQQGWWRGEIYGRVGWFPANYVEEDYS [E24I] yielded an abundance fitness of -0.124 ± 0.066. With KYFGTAKARYDFCARDRSELSLKAGDIIKILNKKGQQGWWRGEIYGRVGWFPANYVEEDYS [E24A] the abundance fitness was 0.082 ± 0.062. For KYFGTAKARYDFCARDRSELSLKTGDIIKILNKKGQQGWWRGEIYGRVGWFPANYVEEDYS [E24T], the abundance fitness was -0.01 ± 0.077. Variant KYFGTAKARYDFCARDRSELVLKEGDIIKILNKKGQQGWWRGEIYGRVGWFPANYVEEDYS [S21V] has an abundance fitness of -0.895 ± 0.16. In the case of KYFGTAKARYDFCARDRSELYLKEGDIIKILNKKGQQGWWRGEIYGRVGWFPANYVEEDYS [S21Y], the abundance fitness is reported as -0.513 ± 0.22. Work on KYFGTAKARYDFCARDRSELTLKEGDIIKILNKKGQQGWWRGEIYGRVGWFPANYVEEDYS [S21T] yielded an abundance fitness of -0.265 ± 0.12. For KYFGTAKARYDFCARDRSELRLKEGDIIKILNKKGQQGWWRGEIYGRVGWFPANYVEEDYS [S21R], the abundance fitness was -0.742 ± 0.13.
